Laboratory results published in patent US20220305098.

Biological target: T1, S5a protein (Ube3a target protein), P55036
T1 chain: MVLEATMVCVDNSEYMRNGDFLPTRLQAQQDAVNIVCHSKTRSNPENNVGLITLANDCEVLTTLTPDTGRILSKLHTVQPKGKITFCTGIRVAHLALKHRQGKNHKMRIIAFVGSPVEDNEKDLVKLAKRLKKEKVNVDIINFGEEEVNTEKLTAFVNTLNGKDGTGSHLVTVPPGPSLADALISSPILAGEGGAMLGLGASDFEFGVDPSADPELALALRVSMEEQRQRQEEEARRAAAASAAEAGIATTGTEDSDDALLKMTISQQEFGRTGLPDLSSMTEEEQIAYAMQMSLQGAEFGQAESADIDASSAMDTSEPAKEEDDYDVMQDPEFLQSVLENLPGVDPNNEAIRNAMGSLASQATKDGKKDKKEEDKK

B1: Human Ube3a isoform 1 with 8xN-glycan sites and IL2 secretion signal (expressed from the hAS8 lentiviral vector) (protein)
chain: MKRAAAKHLIERYYHQLTEGCGNEACTNEFCASCPTFLRMDNNTAAIKALELYKINAKLCDPHPSKKGASSAYLENSTGAPNNTCSEIKMNKKGARIDFKDVTYLTEEKVYEILELCREREDYSPLIRVIGRVFSSAEALVQSFRKVKQHTKEELKSLQAKDEDKDEDEKEKAACSAAAMEEDSEASSSRIGDSSQGDNNTQKLGPDDVSVDIDAIRRVYTRLLSNEKIETAFLNALVYLSPNVECDLTYHNVYSRDPNYLNLFIIVMENRNLHSPEYLEMALPLFCKAMSKLPLAAQGKLIRLWSKYNADQIRRMMETFQQLITYKVISNEFNSTNLVNDDDAIVAASKCLKMVYYANVVGGEVDTNHNEEDDEEPIPESSELTLQELLGEERRNKKGPRVDPLETELGVKTLDCRKPLIPFEEFINEPLNEVLEMDKDYTFFKVETENKFSFMTCPFILNAVTKNLGLYYDNRIRMYSERRITVLYSLVQGQQLNPYLRLKVRRDHIIDDALVRLEMIAMENPADLKKQLYVEFEGEQGVDEGGVSKEFFQLVVEEIFNPDIGMFTYDNSTKLFWFNPSSFETEGQFTLIGIVLGLAIYNNTILDVHFPMVVYRKLMGKKGTFRDLGDSHPVLYQSLKDLLEYEGNVEDDMMITFQISQTDLFGNPMMYDLKENGDKIPITNENRKEFVNLYSDYILNKSVEKQFKAFRRGFHMVTNESPLKYLFRPEEIELLICGSRNLDFQALEETTEYDGGYTRDSVLIREFWEIVHSFTDEQKRLFLQNNTGTDRAPVGGLGKLKMIIAKNGPDTERLPTSHTCFNVLLLPEYSSKEKLKERLLKAITYAKGFGML
ubiquitination activity of the Ube3a S5a target protein (blot, bands of ubiquitinated S5A): different mutated forms of Ube3a ubiquitinate their S5A target
